± gives the uncertainty stated by the source.

B1: Probable E3 ubiquitin-protein ligase MID2, residues 191 to 235; numbered along this chain, Q9UJV3 (parent)
chain: RGITCLDHENEKVNMYCVSDDQLICALCKLVGRHRDHQVASLNDR

Variants of B1 are the subject of this series. Put plainly: abundance fitness (aPCA) (normalised: wild type 0, dead -1); higher = more abundant; growth selection in yeast, the domain comes from the species named. The settings on record: Homo sapiens.
Regarding RGITCLDHENEKVNMYCVSNDQLICALCKLVGRHRDHQVASLNDR [D20N], the abundance fitness was -0.456 ± 0.44.

For RGITCLDHENEKVNMYCVSYDQLICALCKLVGRHRDHQVASLNDR [D20Y], the abundance fitness was -1.43 ± 0.25.

In the case of RGITCLDHENEKVNMYCVSHDQLICALCKLVGRHRDHQVASLNDR [D20H], the abundance fitness is -0.459 ± 0.098.

Regarding RGITCLDHENEKVNMYCLSDDQLICALCKLVGRHRDHQVASLNDR [V18L], the abundance fitness was -0.024 ± 0.058.

As to RGITCLDHENEKVNMYCCSDDQLICALCKLVGRHRDHQVASLNDR [V18C], the abundance fitness was found to be 0.036 ± 0.082.

Turning to RGITCLDHENEKVNMYCRSDDQLICALCKLVGRHRDHQVASLNDR [V18R], the abundance fitness was found to be 0.056 ± 0.048.

As for RGITCLDHENEKVNMYCPSDDQLICALCKLVGRHRDHQVASLNDR [V18P], the abundance fitness was -0.025 ± 0.082.

On to RGITCLDHENEKVNMYCWSDDQLICALCKLVGRHRDHQVASLNDR [V18W], for which the abundance fitness was -0.19 ± 0.056.

Regarding RGITCLDHENEKVNMYCSSDDQLICALCKLVGRHRDHQVASLNDR [V18S], the abundance fitness was determined as 0.027 ± 0.056.

For the variant RGITCLDHENEKVNMYCKSDDQLICALCKLVGRHRDHQVASLNDR [V18K], the abundance fitness was 0.079 ± 0.064.

Regarding RGITCLDHENEKVNMYCASDDQLICALCKLVGRHRDHQVASLNDR [V18A], the abundance fitness worked out at 0.054 ± 0.044.

Take RGITCLDHENEKVNMYCDSDDQLICALCKLVGRHRDHQVASLNDR [V18D]: the abundance fitness came to 0.065 ± 0.065.

As to RGITCLDHENEKVNMYCNSDDQLICALCKLVGRHRDHQVASLNDR [V18N], the abundance fitness was -0.125 ± 0.083.

As for RGITCLDHENEKVNMYCTSDDQLICALCKLVGRHRDHQVASLNDR [V18T], the abundance fitness was found to be 0.2 ± 0.061.

With RGITCLDHENEKVNMYCGSDDQLICALCKLVGRHRDHQVASLNDR [V18G], the abundance fitness is 0.011 ± 0.043.

RGITCLDHENEKVNMYCFSDDQLICALCKLVGRHRDHQVASLNDR [V18F]: the abundance fitness was -0.112 ± 0.11.

As for RGITCLDHENEKVNMYCISDDQLICALCKLVGRHRDHQVASLNDR [V18I], the abundance fitness was -0.165 ± 0.089.

Regarding RGITCLDHENEKVNRYCVSDDQLICALCKLVGRHRDHQVASLNDR [M15R], the abundance fitness is -0.118 ± 0.06.

As for RGITCLDHENEKVNWYCVSDDQLICALCKLVGRHRDHQVASLNDR [M15W], the abundance fitness was 0.11 ± 0.058.

For the variant RGITCLDHENEKVNQYCVSDDQLICALCKLVGRHRDHQVASLNDR [M15Q], the abundance fitness was found to be 0.166 ± 0.07.

Consider RGITCLDHENEKVNKYCVSDDQLICALCKLVGRHRDHQVASLNDR [M15K], for which the abundance fitness was -0.176 ± 0.12.

Regarding RGITCLDHENEKVNLYCVSDDQLICALCKLVGRHRDHQVASLNDR [M15L], the abundance fitness is 0.003 ± 0.063.

On to RGITCLDHENEKVNVYCVSDDQLICALCKLVGRHRDHQVASLNDR [M15V], for which the abundance fitness was -0.277 ± 0.069.

With RGITCLDHENEKVNTYCVSDDQLICALCKLVGRHRDHQVASLNDR [M15T], the abundance fitness is -0.1 ± 0.069.

With RGITCLDHENEKVNFYCVSDDQLICALCKLVGRHRDHQVASLNDR [M15F], the abundance fitness was -0.069 ± 0.25.

Consider RGITCLDHENEKVNPYCVSDDQLICALCKLVGRHRDHQVASLNDR [M15P], for which the abundance fitness is -0.251 ± 0.07.

Take RGITCLDHENEKVNGYCVSDDQLICALCKLVGRHRDHQVASLNDR [M15G]: the abundance fitness came to 0.081 ± 0.053.

RGITCLDHENEKVNMYCVKDDQLICALCKLVGRHRDHQVASLNDR [S19K]: the abundance fitness is -0.049 ± 0.065.

Take RGITCLDHENEKVNMYCVQDDQLICALCKLVGRHRDHQVASLNDR [S19Q]: the abundance fitness is 0.097 ± 0.06.

Regarding RGITCLDHENEKVNMYCVPDDQLICALCKLVGRHRDHQVASLNDR [S19P], the abundance fitness was -0.047 ± 0.066.

As for RGITCLDHENEKVNMYCVMDDQLICALCKLVGRHRDHQVASLNDR [S19M], the abundance fitness was -0.067 ± 0.084.

With RGITCLDHENEKVNMYCVTDDQLICALCKLVGRHRDHQVASLNDR [S19T], the abundance fitness amounted to 0.049 ± 0.056.

On to RGITCLDHENEKVNMYCVDDDQLICALCKLVGRHRDHQVASLNDR [S19D], for which the abundance fitness is -0.18 ± 0.11.

RGITCLDHENEKVNMYCVEDDQLICALCKLVGRHRDHQVASLNDR [S19E]: the abundance fitness turned out to be 0.07 ± 0.057.

With RGITCLDHENEKVNMYCVHDDQLICALCKLVGRHRDHQVASLNDR [S19H], the abundance fitness is 0.093 ± 0.11.

As for RGITCLDHENEKVNMYCVYDDQLICALCKLVGRHRDHQVASLNDR [S19Y], the abundance fitness is -0.296 ± 0.18.

Take RGITCLDHENEKVNMYCVFDDQLICALCKLVGRHRDHQVASLNDR [S19F]: the abundance fitness was -0.146 ± 0.064.

RGITCLDHENEKVNMYCVLDDQLICALCKLVGRHRDHQVASLNDR [S19L]: the abundance fitness was -0.08 ± 0.053.

As to RGITCLDHENEKVNMYCVWDDQLICALCKLVGRHRDHQVASLNDR [S19W], the abundance fitness is -0.211 ± 0.061.

For the variant RGITCLDHENEKVNMYCVADDQLICALCKLVGRHRDHQVASLNDR [S19A], the abundance fitness was 0.107 ± 0.05.

As for RGITCLDHENEKVNMYCVVDDQLICALCKLVGRHRDHQVASLNDR [S19V], the abundance fitness is -0.032 ± 0.051.

With RGITCLDHENEKVNMYCVGDDQLICALCKLVGRHRDHQVASLNDR [S19G], the abundance fitness was -0.005 ± 0.047.

With RGITCLDHENEKVNMYCVRDDQLICALCKLVGRHRDHQVASLNDR [S19R], the abundance fitness was -0.041 ± 0.046.

With RGITCLDHENEKVNMYCVNDDQLICALCKLVGRHRDHQVASLNDR [S19N], the abundance fitness was -0.092 ± 0.12.

RGITCLDHENEKVNMYCVSDDLLICALCKLVGRHRDHQVASLNDR [Q22L]: the abundance fitness was -0.177 ± 0.063.

Turning to RGITCLDHENEKVNMYCVSDDYLICALCKLVGRHRDHQVASLNDR [Q22Y], the abundance fitness was -0.264 ± 0.35.

For the variant RGITCLDHENEKVNMYCVSDDILICALCKLVGRHRDHQVASLNDR [Q22I], the abundance fitness is -0.259 ± 0.19.

On to RGITCLDHENEKVNMYCVSDDDLICALCKLVGRHRDHQVASLNDR [Q22D], for which the abundance fitness was -0.19 ± 0.2.

Regarding RGITCLDHENEKVNMYCVSDDMLICALCKLVGRHRDHQVASLNDR [Q22M], the abundance fitness turned out to be 0.054 ± 0.068.

As to RGITCLDHENEKVNMYCVSDDPLICALCKLVGRHRDHQVASLNDR [Q22P], the abundance fitness was -0.381 ± 0.1.

Consider RGITCLDHENEKVNMYCVSDDRLICALCKLVGRHRDHQVASLNDR [Q22R], for which the abundance fitness came to 0.1 ± 0.054.

On to RGITCLDHENEKVNMYCVSDDSLICALCKLVGRHRDHQVASLNDR [Q22S], for which the abundance fitness was found to be 0.049 ± 0.056.

Consider RGITCLDHENEKVNMYCVSDDTLICALCKLVGRHRDHQVASLNDR [Q22T], for which the abundance fitness was -0.062 ± 0.12.

Consider RGITCLDHENEKVNMYCVSDDELICALCKLVGRHRDHQVASLNDR [Q22E], for which the abundance fitness is -0.113 ± 0.085.

For RGITCLDHENEKVNMYCVSDDWLICALCKLVGRHRDHQVASLNDR [Q22W], the abundance fitness is -0.515 ± 0.13.

Regarding RGITCLDHENEKVNMYCVSDDKLICALCKLVGRHRDHQVASLNDR [Q22K], the abundance fitness was found to be 0.05 ± 0.068.

Regarding RGITCLDHENEKVNMYCVSDDVLICALCKLVGRHRDHQVASLNDR [Q22V], the abundance fitness was -0.012 ± 0.062.

Values taken from the Human Domainome abundance scans (Beltran et al. 2025).
